From US20100137566A1 come the findings set out here.

The target of assay [1] is GST-karyopherin α (karyopherin α expressed as a fusion protein with glutathione S-transferase), immobilized on glutathione Sepharose beads. Description: pull-down on GST-karyopherin α beads, PCR; against untreated extract.
The target is the same in assay [2]. Description: pull-down on GST-karyopherin α beads, PCR.
The target is the same in assay [3]. The assay can be described thus: pull-down on GST-karyopherin α beads, PCR, Phosphorimager; against untreated lysate.

Consider “HIV-1NLHX pre-integration complexes that lack Vpr (MA NLS+ Vpr-)”, for which the percent reduction of binding in the presence of 1 µM CNI-H0294 (small molecule) in assay [1] was found to be 95%.

As to “HIV-1NLHX pre-integration complexes with mutated MA NLS (MA NLS- Vpr+)”, the binding as percent of that of MA NLS+ complexes (% of MA NLS+ complexes) in assay [2] is 1 to 5.

Consider HIV-1RF pre-integration complexes, for which, in assay [3], the fold reduction of binding in the presence of 0.1 µM CNI-H0294 (small molecule) was 8 fold and the fold reduction of binding in the presence of 1 µM CNI-H0294 (small molecule) is 25 fold.

In the case of “wild-type HIV-1NLHX pre-integration complexes”, the percent reduction of binding in the presence of 1 µM CNI-H0294 (small molecule) in assay [1] is 95%.
